Where no end group is shown, it is not given here.

Data set [1] deals with T1, purified rabbit renal NEP (rabbit, UniProt P08049 2-750, limits assumed).
T1 sequence (looked up): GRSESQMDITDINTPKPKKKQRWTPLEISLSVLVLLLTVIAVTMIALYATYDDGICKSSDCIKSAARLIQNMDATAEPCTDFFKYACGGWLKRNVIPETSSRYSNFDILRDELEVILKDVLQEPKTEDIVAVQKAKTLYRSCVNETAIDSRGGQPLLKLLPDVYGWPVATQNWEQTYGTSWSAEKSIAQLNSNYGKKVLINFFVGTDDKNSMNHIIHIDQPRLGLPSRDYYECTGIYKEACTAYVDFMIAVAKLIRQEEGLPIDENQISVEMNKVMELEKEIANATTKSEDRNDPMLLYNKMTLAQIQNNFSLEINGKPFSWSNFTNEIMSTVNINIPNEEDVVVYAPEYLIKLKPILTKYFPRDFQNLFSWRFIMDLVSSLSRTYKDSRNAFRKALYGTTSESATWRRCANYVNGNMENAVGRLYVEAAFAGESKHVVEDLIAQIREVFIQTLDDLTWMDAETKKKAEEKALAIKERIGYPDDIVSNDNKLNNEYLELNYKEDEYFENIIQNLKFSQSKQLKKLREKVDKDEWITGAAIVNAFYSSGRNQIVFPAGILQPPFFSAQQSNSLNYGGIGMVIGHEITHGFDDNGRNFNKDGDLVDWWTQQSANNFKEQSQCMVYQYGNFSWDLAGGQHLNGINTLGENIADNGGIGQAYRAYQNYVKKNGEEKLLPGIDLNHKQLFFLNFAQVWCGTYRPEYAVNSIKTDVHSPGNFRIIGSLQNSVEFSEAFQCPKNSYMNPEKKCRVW
Briefly: cell-based or functional assay.

Data set [2] has as its target T2, rat Neutral EndoPeptidase 24-11 (NEP), membrane-bound, in rat tissue membrane preparations and fresh tissue … (rat, UniProt P07861 2-750).
T2 sequence (looked up): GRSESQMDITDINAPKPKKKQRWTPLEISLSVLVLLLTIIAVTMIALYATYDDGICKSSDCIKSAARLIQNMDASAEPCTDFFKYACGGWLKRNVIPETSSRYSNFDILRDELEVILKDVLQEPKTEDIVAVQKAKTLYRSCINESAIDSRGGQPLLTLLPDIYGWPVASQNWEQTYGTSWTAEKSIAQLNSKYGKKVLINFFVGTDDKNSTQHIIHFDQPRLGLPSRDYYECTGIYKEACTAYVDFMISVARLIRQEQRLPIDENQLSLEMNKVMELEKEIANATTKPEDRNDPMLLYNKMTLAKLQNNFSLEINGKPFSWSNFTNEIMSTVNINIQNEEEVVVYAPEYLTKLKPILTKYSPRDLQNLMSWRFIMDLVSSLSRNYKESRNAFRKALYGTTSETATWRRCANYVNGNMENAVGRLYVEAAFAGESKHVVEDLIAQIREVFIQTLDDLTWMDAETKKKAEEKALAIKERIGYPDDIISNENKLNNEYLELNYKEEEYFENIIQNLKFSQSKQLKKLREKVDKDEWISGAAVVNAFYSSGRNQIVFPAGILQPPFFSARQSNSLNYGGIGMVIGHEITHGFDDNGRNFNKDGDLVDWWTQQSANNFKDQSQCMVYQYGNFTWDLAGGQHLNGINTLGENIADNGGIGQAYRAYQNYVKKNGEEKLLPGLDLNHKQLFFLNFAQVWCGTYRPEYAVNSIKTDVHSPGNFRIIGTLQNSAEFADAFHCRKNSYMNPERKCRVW
Briefly: cell-based or functional assay.

The target in data set [3] is T3, SMR1-QHNPR (SMR1-Pentapeptide).
T3 chain: QHNPR

The target of data set [4] is T4, modified tritiated Substance P: [(3,4 3H) Pro2-Sar9-Met(O2)11]-Substance P, P20366.
T4 chain: RPKPQQFFGLM

For the molecule QHNPR (also: Gln form interconverts with pGlu form by N-terminal cyclization) [SMR1-QHNPR (SMR1-Pentapeptide)], in data set [1], the “inhibitory potency (IC50) with purified rabbit renal NEP and synthetic specific fluorogenic substrate” value was found to be 600 nM. Also, in data set [2], the “IC50 (concentration of the inhibitor reducing by half the degradation of 3H-substance P) on rat spinal cord membrane preparations” value was roughly 100 nM, the “IC50 of inhibition of 3H substance-P degradation by rat kidney membranes” value was 500 to 1000 nM and the “inhibitory potency (IC50) with rat spinal NEP” value is 400 nM.

B1: rat Neutral EndoPeptidase 24-11 (NEP), membrane-bound, in rat tissue membrane preparations and fresh tissue slices (protein)
chain: T2 sequence (looked up)
Consider B1, for which the “fold rise of the apparent Km of the enzyme for substrate (substance P), rat renal membranes” value in data set [3] was “raising the apparent Km of the enzyme for substrate by 2-5 fold”.

B2: purified rabbit renal NEP (protein)
chain: T1 sequence (looked up)
With B2, in data set [4], the “initial velocity of substance P hydrolysis by purified rabbit renal NEP (Vi)” value is given as “Vi=140 pM/min/µg enzyme”.

The values are drawn from patent US20040116342A1 (INSTITUT PASTEUR, published 2004).
